{"source": "paper PMC12503259", "about": "“Establishment of an in vivo analytical method for detecting total anti-UFH activity and pharmacokinetic study in PS and R15 in rats” (PLOS One, 2025)", "key": {"[1]": {"test": "Stability in rat plasma at room temperature for 30 min", "assay_type": "in vitro ADME", "details": "for RE%: plasma sample, room temperature (25℃) for 30 min, n=6; for Measured concentration after storage, Mean ± SD / RE (%) versus nominal concentration: rat plasma, room temperature (25°C ± 1°C) for 30 min; for Measured concentration after storage, Mean ± SD: n = 6", "experimental": "(§1) Processing of Plasma Samples: 100 μL of the unknown plasma sample was added to 500 μL of 75% methanol (methanol: water = 75:25, v/v) and vortex-mixed for 5 seconds. The mixture was then centrifuged at 12,000 r/min for 10 minutes at 25°C. The supernatant (500 μL) was collected and dried under nitrogen at 60°C. Subsequently, UFH (0.14 U·mL^-1 for PS and 0.15 U·mL^-1 for R15; 120 μL) was added, and the mixture was vigorously shaken at room temperature for 10 minutes. The residual UFH content was measured using the Heparin Anti-FXa assay kit.\n(§2) The detailed procedure is as follows: Accurately pipette 40 μL of the sample into a 96-well plate. Place the plate in a microplate shaker. Using a multichannel pipette, add 40 μL of reagent R1 and mix by shaking. Incubate at 37 °C for exactly 3 minutes (start timing upon addition of R1; at 50 seconds, begin shaking with the microplate shaker for 1 minute, then place the plate in the incubator). Remove the 96-well plate from the incubator and place it on the open microplate shaker. Using a multichannel pipette, add 40 μL of reagent R2 to each well and incubate at 37 °C for 6 minutes (after adding R2, at 3 minutes and 50 seconds, open the microplate shaker and shake for 4 minutes, then return the plate to the incubator). Remove the 96-well plate from the incubator and place it on the open microplate shaker. Quickly add 40 μL of reagent R3 using a multichannel pipette and shake until 9 minutes and 10 seconds. At 9 minutes and 30 seconds, add 80 μL of 20% acetic acid to each well to terminate the reaction. Measure the absorbance at 405 nm using a microplate reader (Multiskan FC, Thermo Fisher US).\n(§3) Two concentration levels (low and high QC) were evaluated for validation of storage stability and freeze/thaw stability. Two concentration levels of PS and R15 (low and high QC) in blank rat plasma were prepared (n = 6), respectively. Samples in rats’ plasma were determined after storage at room temperature (25°C ± 1°C) for 30 min. Samples in rats’ plasma were under three freeze (−80°C)-thaw (25°C) cycles. Stock solution of PS and R15 were stored at 4°C for a week. All the samples mentioned above were processed by calibration curves with adequate QC samples diluted from newly prepared stock solution of PS and R15, followed by procedure of sample determination (see “Sample Preparation”), respectively."}, "[2]": {"test": "Stability in rat plasma after three freeze-thaw cycles", "assay_type": "in vitro ADME", "details": "for RE%: plasma sample, freeze-thaw three cycles in -20℃, n=6; for Measured concentration after storage, Mean ± SD / RE (%) versus nominal concentration: rat plasma, three freeze (−80°C)-thaw (25°C) cycles; for Measured concentration after storage, Mean ± SD: n = 6", "experimental": "as §1, §2\nTwo concentration levels (low and high QC) were evaluated for validation of storage stability and freeze/thaw stability. Two concentration levels of PS and R15 (low and high QC) in blank rat plasma were prepared (n = 6), respectively. Samples in rats’ plasma were determined after storage at room temperature (25°C ± 1°C) for 30 min. […] Stock solution of PS and R15 were stored at 4°C for a week. All the samples mentioned above were processed by calibration curves with adequate QC samples diluted from newly prepared stock solution of PS and R15, followed by procedure of sample determination (see “Sample Preparation”), respectively."}, "complement": {"system": "complement", "details": "under UFH excess; cited from earlier work", "from_the_text": "PS and UFH-PS complexes activate complement. Complement fragments can accumulate in the pulmonary microcirculation, up-regulate endothelial adhesion molecules, and recruit neutrophils and monocytes, forming inflammatory microthrombi."}, "[3]": {"test": "Stability of stock solution at 4°C for a week", "assay_type": "physicochemical", "details": "for Measured concentration after storage, Mean ± SD: stock solution (10 mg·mL^-1 in deionized water) stored 1 week at 4°C, n = 6; for Mean determined concentration, stability of stock solution / RE%: stock solution for 1 week; for Mean determined concentration, stability of stock solution: mean of n=6; for RE%: n=6; for RE (%) versus nominal concentration: stock solution stored 1 week at 4°C", "experimental": "Preparation of Stock Solutions: Appropriate amounts of PS and R15 powders were accurately weighed and dissolved in deionized water to obtain stock solutions at 10 mg·mL^-1, respectively. This solution was stored in a refrigerator at 4 °C and replaced regularly.\nas §3"}, "[4]": {"details": "clinical use; cited from earlier work", "from_the_text": "PS is a cationic protein mixture with a molecular weight of 4000–6000 Da, and is the only heparin antagonist approved for clinical use. PS is primarily extracted from the sperm of wild salmon species, and this cationic protein binds to the anionic heparin, forming a UFH-PS complex that neutralizes the activity of heparin [7–10]. However, PS is associated with several adverse reactions in clinical applications, such as systemic hypotension, pulmonary hypertension, and allergic reactions. Despite extensive exploration of its mechanisms, the underlying causes of PS-related a ..."}, "[5]": {"details": "in vivo; cited from earlier work", "quoted_text": "In clinical practice, PS is typically administered at 1.2 times the anti-heparin activity of circulating UFH to achieve complete neutralization [40, 41]."}, "[6]": {"system": "activated partial thromboplastin time (APTT)", "details": "in vitro, supratherapeutic amounts; cited from earlier work"}, "[7]": {"details": "nominal 0.7 μg·mL^-1, anti-FXa read-out at 405 nm"}, "[8]": {"details": "nominal 1.5 μg·mL^-1, anti-FXa read-out at 405 nm"}}, "data": [{"substance": "Protamine sulfate [PS]", "values": [{"measurement": "RE%", "setting": "[1]; nominal 0.70 μg/mL", "result": 8.10, "unit": "%"}, {"measurement": "RE%", "setting": "[1]; nominal 1.50 μg/mL", "result": 4.44, "unit": "%"}, {"measurement": "Measured concentration after storage, Mean ± SD", "setting": "[1]; [7]", "result": "0.76 ± 0.01", "unit": "µg/mL"}, {"measurement": "RE (%) versus nominal concentration", "setting": "[1]; nominal 0.7 μg·mL^-1, n = 6", "result": 8.10, "unit": "%"}, {"measurement": "Measured concentration after storage, Mean ± SD", "setting": "[1]; [8]", "result": "1.57 ± 0.09", "unit": "µg/mL"}, {"measurement": "RE (%) versus nominal concentration", "setting": "[1]; nominal 1.5 μg·mL^-1, n = 6", "result": 4.44, "unit": "%"}, {"measurement": "RE%", "setting": "[2]; nominal 0.70 μg/mL", "result": 10.71, "unit": "%"}, {"measurement": "RE%", "setting": "[2]; nominal 1.50 μg/mL", "result": 5.78, "unit": "%"}, {"measurement": "Measured concentration after storage, Mean ± SD", "setting": "[2]; [7]", "result": "0.78 ± 0.02", "unit": "µg/mL"}, {"measurement": "RE (%) versus nominal concentration", "setting": "[2]; nominal 0.7 μg·mL^-1, n = 6", "result": 10.71, "unit": "%"}, {"measurement": "Measured concentration after storage, Mean ± SD", "setting": "[2]; [8]", "result": "1.59 ± 0.04", "unit": "µg/mL"}, {"measurement": "RE (%) versus nominal concentration", "setting": "[2]; nominal 1.5 μg·mL^-1, n = 6", "result": 5.78, "unit": "%"}, {"measurement": "complement activation by UFH-PS complex relative to UFH–R15 complex", "setting": "complement", "result": 8.28, "unit": "fold"}, {"measurement": "Measured concentration after storage, Mean ± SD", "setting": "[3]; then diluted to nominal 0.7 μg·mL^-1, anti-FXa read-out", "result": "0.59 ± 0.02", "unit": "µg/mL"}, {"measurement": "Measured concentration after storage, Mean ± SD", "setting": "[3]; then diluted to nominal 1.5 μg·mL^-1, anti-FXa read-out", "result": "1.44 ± 0.04", "unit": "µg/mL"}, {"measurement": "Mean determined concentration, stability of stock solution", "setting": "[3]; nominal 0.7 μg/mL", "result": 0.59, "unit": "µg/mL"}, {"measurement": "RE%", "setting": "[3]; nominal 0.7 μg/mL", "result": -15.2, "unit": "%"}, {"measurement": "Mean determined concentration, stability of stock solution", "setting": "[3]; nominal 1.5 μg/mL", "result": 1.44, "unit": "µg/mL"}, {"measurement": "RE%", "setting": "[3]; nominal 1.5 μg/mL", "result": -4.1, "unit": "%"}, {"measurement": "RE (%) versus nominal concentration", "setting": "[3]; nominal 0.7 μg·mL^-1, n = 6", "result": "−15.2", "unit": "%"}, {"measurement": "RE (%) versus nominal concentration", "setting": "[3]; nominal 1.5 μg·mL^-1, n = 6", "result": "−4.1", "unit": "%"}, {"measurement": "rate of mild adverse reactions", "setting": "[4]", "result": "≤ 16", "unit": "%"}, {"measurement": "T1/2", "setting": "[5]", "result": 7.4, "unit": "min"}, {"measurement": "effect of excess on APTT", "setting": "[6]", "result": "persistently prolonged APTT"}]}]}
